Results from US20240400685A1.

Tests used:
[1] = target: human CD3 epsilon (human) (UniProt P07766); test: cell-based or functional assay
human CD20 (human) = human CD20 (human) (UniProt P11836); test: cell-based or functional assay
Sequence of human CD20 (human) (P11836 whole entry): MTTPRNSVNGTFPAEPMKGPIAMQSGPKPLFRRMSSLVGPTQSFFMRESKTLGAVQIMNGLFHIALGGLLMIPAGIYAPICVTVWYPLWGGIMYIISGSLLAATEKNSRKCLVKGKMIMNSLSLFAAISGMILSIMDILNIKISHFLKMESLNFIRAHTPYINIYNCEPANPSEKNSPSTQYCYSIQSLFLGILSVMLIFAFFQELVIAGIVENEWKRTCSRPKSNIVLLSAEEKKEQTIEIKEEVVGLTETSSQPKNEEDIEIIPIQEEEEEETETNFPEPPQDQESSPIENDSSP

Sequence of human CD3 epsilon (human) (P07766 23-207): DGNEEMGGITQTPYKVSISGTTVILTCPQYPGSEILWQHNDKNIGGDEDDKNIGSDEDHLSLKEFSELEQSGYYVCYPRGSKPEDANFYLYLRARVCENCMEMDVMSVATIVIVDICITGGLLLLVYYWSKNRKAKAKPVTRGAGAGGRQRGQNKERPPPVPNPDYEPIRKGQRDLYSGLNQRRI

epcoritamab LMWS fraction (Fc+Fab fragment)
biological activity, T-cell activation assay [1]: 40%
biological activity, T-cell activation assay (human CD20 (human)): 40%
